The results in this text go back to patent US20140357844A1 (RINAT NEUROSCIENCE, published 2014).

Assay [1] concerns the target T1, monovalent human Trop2-ECD antigen (human, UniProt P09758 27-274).
T1 construct: also called human Trop2-ECD (Extracellular Domain)
T1 sequence: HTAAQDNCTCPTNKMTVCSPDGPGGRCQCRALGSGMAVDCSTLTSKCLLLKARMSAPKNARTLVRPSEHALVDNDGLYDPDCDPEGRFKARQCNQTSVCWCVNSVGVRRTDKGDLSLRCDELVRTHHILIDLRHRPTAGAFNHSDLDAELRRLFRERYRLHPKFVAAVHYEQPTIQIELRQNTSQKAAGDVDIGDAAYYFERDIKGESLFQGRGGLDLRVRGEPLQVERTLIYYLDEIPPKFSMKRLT
The experiment in a line: SPR (ProteOn XPR36), amine-coupled Fab, monovalent human Trop2-ECD as analyte, 25 C.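 Note: GLC sensor chip, 3 min association then 15 min buffer dissociation, kinetics fit with a 1:1 Langmuir model, buffer of 10 mM sodium phosphate with 150 mM NaCl and 0.05% Tween-20 at pH 7.4.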
Description: Analysis of Fab/human Trop2-ECD (Extracellular Domain) interactions was performed using a Bio-Rad Proteon XPR36Surface Plasmon Resonance (SPR) biosensor (Bio-Rad, Hercules, Calif.) equipped with a GLC sensor chip. The assay temperature was 25° C., and the assay buffer was 10 mM Sodium Phosphate, 150 mM NaCl, 0.05% Tween-20, pH 7.4. […] In each analysis cycle, monovalent human Trop2-ECD antigen was flowed at 30 μL/min over the immobilized Fabs for 3 minutes followed by a buffer wash for 15 minutes to monitor dissociation of the Fab/Trop2 complex. The sensor surface was regenerated between analysis cycles, using three 18-second injections of a 2:1 mixture (by volume) of Pierce IgG Elution buffer:4 M NaCl (Pierce, Rockford, Ill.). […] The resulting data were fit to a 1:1 Langmuir binding model using the Proteon evaluation software.

In assay [2] the target is T2, cynomolgus monkey Trop-2-hFc (cynomolgus monkey, UniProt A0A2K5UE71 27-274).
T2 construct: also called cynoTrop-2; not shown: human Fc
T2 sequence: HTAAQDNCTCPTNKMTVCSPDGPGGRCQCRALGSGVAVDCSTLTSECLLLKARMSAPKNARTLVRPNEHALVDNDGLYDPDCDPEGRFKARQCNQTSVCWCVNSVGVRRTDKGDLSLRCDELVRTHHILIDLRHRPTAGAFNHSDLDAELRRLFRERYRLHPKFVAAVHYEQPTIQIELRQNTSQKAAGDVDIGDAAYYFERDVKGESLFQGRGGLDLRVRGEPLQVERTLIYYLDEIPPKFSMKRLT
The experiment in a line: SPR (Biacore T200), cynomolgus Trop-2-hFc captured by anti-human Fc, Fab as analyte. In general terms: Surface plasmon resonance follows binding to a sensor surface in real time, without labels.

The next assay has as its target T3, human Trop-2-hFc (human, UniProt P09758 27-274).
T3 construct: also called huTrop-2; human Trop-2 human Fc fusion protein; not shown: human Fc
T3 sequence: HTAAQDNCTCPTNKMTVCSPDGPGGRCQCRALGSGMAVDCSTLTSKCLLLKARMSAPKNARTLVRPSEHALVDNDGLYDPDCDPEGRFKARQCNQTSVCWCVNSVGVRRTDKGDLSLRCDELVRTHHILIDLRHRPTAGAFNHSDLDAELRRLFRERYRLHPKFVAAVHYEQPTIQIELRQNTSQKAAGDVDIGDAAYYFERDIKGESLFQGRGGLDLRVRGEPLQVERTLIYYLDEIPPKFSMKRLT
The experiment in a line: SPR (Biacore T200), human Trop-2-hFc captured by anti-human Fc, Fab as analyte.

Excerpt for human Trop-2-hFc: The human Trop-2-hFc or cynomolgus monkey Trop-2-hFc proteins were captured on the CM5 EDA chip 37 sensor surface coupled with anti-human Fc.

B1: h7E6_SVG Fab (Fab, V domains shown)
VH: QVQLQESGPGLVKPSETLSLTCTVSGGSISSYGVHWIRQPPGKGLEWIGVIWTSGVTDYNSALMGRVTISVDTSKNQFSLKLSSVTAADTAVYYCARDGDYDRYTMDYWGQGTLVTVSS
VL: DIVMTQSPDSLAVSLGERATINCRASKSVSTSGYSYMHWYQQKPGQPPKLLIYLASNLESGVPDRFSGSGSGTDFTLTISSLQAEDVAVYYCQHSRELPYTFGQGTKLEIK
notes: also called DG (h7E6_SVG)
By Kd is commonly meant the equilibrium constant for the complex coming apart. Broadly, the koff is the first-order rate constant of dissociation. Usually kon stands for the rate constant with which the complex forms. For B1, in assay [1], the affinity, expressed as Kd, was 4.1 nM; the dissociation rate constant (koff) is 0.00069 s⁻¹; the kon was 170000 M⁻¹ s⁻¹; the t1/2 is 1020 s. Also, in assay [2], binding was put at a Kd of 7 nM, the koff was 0.00189 s⁻¹ and the kon came to 265000 M⁻¹ s⁻¹. In the assay with human Trop-2-hFc, this molecule came in with a dissociation constant (Kd) of 4.46 nM, a koff of 0.000435 s⁻¹ and an association rate constant (kon) of 97600 M⁻¹ s⁻¹.

B2: h7E6-WT recombinant Fab fragment (Fab, V domains shown)
VH: QVQLQESGPGLVKPSETLSLTCTVSGGSISSYGVHWIRQPPGKGLEWIGVIWTGGSTDYNSALMSRVTISVDTSKNQFSLKLSSVTAADTAVYYCARDGDYDRYTMDYWGQGTLVTVSS
VL: DIVMTQSPDSLAVSLGERATINCRASKSVSTSGYSYMHWYQQKPGQPPKLLIYLASNLESGVPDRFSGSGSGTDFTLTISSLQAEDVAVYYCQHSRELPYTFGQGTKLEIK
notes: Recombinant Fab
Consider B2, for which, in assay [2], binding was characterised by a dissociation constant (Kd) of 44 nM, the koff worked out at 0.00635 s⁻¹ and the kon was determined as 144000 M⁻¹ s⁻¹. In the assay with human Trop-2-hFc, this molecule gave a Kd of 21.1 nM, a koff of 0.00294 s⁻¹ and a kon of 139000 M⁻¹ s⁻¹.

B3: h7E6_SVG19 Fab (Fab, V domains shown)
VH: QVQLQESGPGLVKPSETLSLTCTVSGGSISSYGVHWIRQPPGKGLEWIGVIWTSGVTDYNSALMGRVTISVDTSKNQFSLKLSSVTAADTAVYYCARDSDYDRYTMDYWGQGTLVTVSS
VL: DIVMTQSPDSLAVSLGERATINCRASKSVSTSGYSYMHWYQQKPGQPPKLLIYLASNLESGVPDRFSGSGSGTDFTLTISSLQAEDVAVYYCQHSRELPYTFGQGTKLEIK
notes: also called DS (h7E6_SVG19)
In assay [1], B3 had an equilibrium dissociation constant (Kd) above 75 nM, a koff of 0.045 s⁻¹, a kon below 600000 M⁻¹ s⁻¹ and a t1/2 of 15.6 s.

B4: h7E6_SVG28 Fab (Fab, V domains shown)
VH: QVQLQESGPGLVKPSETLSLTCTVSGGSISSYGVHWIRQPPGKGLEWIGVIWTSGVTDYNSALMGRVTISVDTSKNQFSLKLSSVTAADTAVYYCARDLDYDRYTMDYWGQGTLVTVSS
VL: DIVMTQSPDSLAVSLGERATINCRASKSVSTSGYSYMHWYQQKPGQPPKLLIYLASNLESGVPDRFSGSGSGTDFTLTISSLQAEDVAVYYCQHSRELPYTFGQGTKLEIK
notes: also called DL (h7E6_SVG28)
In assay [1], B4 showed a Kd above 75 nM, a koff of 0.016 s⁻¹, an association rate constant (kon) below 210000 M⁻¹ s⁻¹ and a t1/2 of 43.2 s.

B5: h7E6_SVG20 Fab (Fab, V domains shown)
VH: QVQLQESGPGLVKPSETLSLTCTVSGGSISSYGVHWIRQPPGKGLEWIGVIWTSGVTDYNSALMGRVTISVDTSKNQFSLKLSSVTAADTAVYYCARDKDYDRYTMDYWGQGTLVTVSS
VL: DIVMTQSPDSLAVSLGERATINCRASKSVSTSGYSYMHWYQQKPGQPPKLLIYLASNLESGVPDRFSGSGSGTDFTLTISSLQAEDVAVYYCQHSRELPYTFGQGTKLEIK
notes: also called DK (h7E6_SVG20)
In assay [1], B5 yielded a Kd above 75 nM, a koff of 0.013 s⁻¹, a kon below 170000 M⁻¹ s⁻¹ and a t1/2 of 52.8 s.

B6: h7E6_SVG30 Fab (Fab, V domains shown)
VH: QVQLQESGPGLVKPSETLSLTCTVSGGSISSYGVHWIRQPPGKGLEWIGVIWTSGVTDYNSALMGRVTISVDTSKNQFSLKLSSVTAADTAVYYCARDEDYDRYTMDYWGQGTLVTVSS
VL: DIVMTQSPDSLAVSLGERATINCRASKSVSTSGYSYMHWYQQKPGQPPKLLIYLASNLESGVPDRFSGSGSGTDFTLTISSLQAEDVAVYYCQHSRELPYTFGQGTKLEIK
notes: also called DE (h7E6_SVG30)
In assay [1], B6 gave a dissociation constant (Kd) above 75 nM, a koff of 0.064 s⁻¹, a kon below 850000 M⁻¹ s⁻¹ and a t1/2 of 10.8 s.

B7: h7E6_L recombinant Fab fragment (Fab, V domains shown)
VH: QVQLQESGPGLVKPSETLSLTCTVSGGSISSYGVHWIRQPPGKGLEWIGVIWTGGSTDYNSALMSRVTISVDTSKNQFSLKLSSVTAADTAVYYCARDGDYDRYTMDYWGQGTLVTVSS
VL: DIVMTQSPDSLAVSLGERATINCRASKSVSTSLYSYMHWYQQKPGQPPKLLIYLASNLESGVPDRFSGSGSGTDFTLTISSLQAEDVAVYYCQHSRELPYTFGQGTKLEIK
notes: Recombinant Fab
In assay [2], B7 showed a Kd of 2.66 nM, a koff of 0.000335 s⁻¹ and an on-rate (kon) of 126000 M⁻¹ s⁻¹. In the assay with human Trop-2-hFc, this molecule displayed a dissociation constant Kd of 1.15 nM, a koff of 0.00015 s⁻¹ and a kon of 130000 M⁻¹ s⁻¹.

B8: h7E6_SVGL recombinant Fab fragment (Fab, V domains shown)
VH: QVQLQESGPGLVKPSETLSLTCTVSGGSISSYGVHWIRQPPGKGLEWIGVIWTSGVTDYNSALMGRVTISVDTSKNQFSLKLSSVTAADTAVYYCARDGDYDRYTMDYWGQGTLVTVSS
VL: DIVMTQSPDSLAVSLGERATINCRASKSVSTSLYSYMHWYQQKPGQPPKLLIYLASNLESGVPDRFSGSGSGTDFTLTISSLQAEDVAVYYCQHSRELPYTFGQGTKLEIK
notes: Recombinant Fab
For B8, in assay [2], the Kd amounted to 0.57 nM, the koff amounted to 7.42e-05 s⁻¹ and the kon came out at 130000 M⁻¹ s⁻¹. In the assay with human Trop-2-hFc, this molecule returned a Kd of 0.25 nM, a koff of 3.27e-05 s⁻¹ and a kon of 131000 M⁻¹ s⁻¹.

B9: h7E6_SVG22 Fab (Fab, V domains shown)
VH: QVQLQESGPGLVKPSETLSLTCTVSGGSISSYGVHWIRQPPGKGLEWIGVIWTSGVTDYNSALMGRVTISVDTSKNQFSLKLSSVTAADTAVYYCARDADYDRYTMDYWGQGTLVTVSS
VL: DIVMTQSPDSLAVSLGERATINCRASKSVSTSGYSYMHWYQQKPGQPPKLLIYLASNLESGVPDRFSGSGSGTDFTLTISSLQAEDVAVYYCQHSRELPYTFGQGTKLEIK
notes: also called DA (h7E6_SVG22)
On to B9, for which, in assay [1], the Kd is above 75 nM, the koff was determined as 0.013 s⁻¹, the kon is below 180000 M⁻¹ s⁻¹ and the t1/2 was determined as 51.6 s.

B10: chimeric 7E6 recombinant Fab fragment (Fab, V domains shown)
VH: QVQLKESGPGLVAPSQSLSITCTVSGFSLTSYGVHWVRQPPGKGLEWLGVIWTGGSTDYNSALMSRLSINKDNSKSQVFLKMNSLQTDDTAMYYCARDGDYDRYTMDYWGQGTSVTVSS
VL: DIVLTQSPASLAVSLGQRATISCRASKSVSTSGYSYMHWYQQKPGQPPKLLIYLASNLESGVPARFSGSGSGTDFTLNIHPVEEEDAATYYCQHSRELPYTFGGGTKLEIK
notes: Recombinant chimeric Fab; also called mouse7E6
B10 returned a Kd in assay [2] of 16.5 nM.
